Assay [1] concerns the target T1, human EphA4 extracellular region-SEAP-His protein (human, UniProt P54764 20-547).
T1 construct: also called hEphA4-SEAP-His
As to the kind of experiment: SPR, Ab captured. In a few lines: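 Antibodies captured (~30–60 RU) on a protein A chip, or for antibody A on immobilized rat anti-mouse IgG1, in HBS-EP. Human EphA4 extracellular region-SEAP-His at 0.6–50 nM injected in ascending order without regeneration, with 120 s association and 900 s dissociation. KD=kd/ka from 1:1 binding model fits.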
A general note: In SPR one partner is held on a chip, and binding of the other changes the refractive index at the surface.

The target of assay [2] is T1, human EphA4 extracellular …. As to the kind of experiment: competition ELISA, competitor human Ephrin A5-Fc. The method in brief:
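Anti-alkaline phosphatase-coated plates captured EphA4-SEAP-His (10 nM final), then antibody (0–3000 nM serial dilutions) and biotinylated Ephrin A5-Fc (0.7 nM final) were co-added for 1 h at room temperature. Bound ligand detected with HRP-streptavidin and TMBZ, stopped with 1N H₂SO₄, A450 read.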
On the technique in general: In an ELISA, binding on a coated surface is turned into a signal by an enzyme label.

Assay [3] shares this target. Nature of the assay: ELISA.
Assay [4] concerns the target T2, human EphA8 extracellular region-SEAP-His protein (human, UniProt P29322 28-542).
T2 construct: extracellular domain; also called hEphA8-SEAP-His
T2 sequence (looked up): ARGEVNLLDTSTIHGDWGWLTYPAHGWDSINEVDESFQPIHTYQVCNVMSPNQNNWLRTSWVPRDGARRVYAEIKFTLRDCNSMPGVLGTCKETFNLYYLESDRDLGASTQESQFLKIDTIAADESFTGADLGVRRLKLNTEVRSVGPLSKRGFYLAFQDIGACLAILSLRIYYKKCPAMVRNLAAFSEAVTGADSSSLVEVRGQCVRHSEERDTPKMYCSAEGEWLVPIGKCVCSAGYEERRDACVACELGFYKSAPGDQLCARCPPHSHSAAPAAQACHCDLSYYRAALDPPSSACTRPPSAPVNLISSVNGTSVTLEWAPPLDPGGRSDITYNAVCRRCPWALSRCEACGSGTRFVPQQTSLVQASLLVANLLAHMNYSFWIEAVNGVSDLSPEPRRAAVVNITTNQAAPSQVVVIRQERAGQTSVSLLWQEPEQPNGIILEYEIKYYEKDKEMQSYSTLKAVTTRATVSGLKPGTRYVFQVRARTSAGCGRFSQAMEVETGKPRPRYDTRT
Nature of the assay: ELISA.

As a reminder, the Kd is the equilibrium constant for the complex coming apart. A high value points to lower affinity. For orientation: koff means a measure of how fast the partners let go of each other. Broadly, the kon is a measure of how fast the partners come together. A word on the IC50: it is the concentration at which inhibition is half-maximal. Low values mean higher potency, high ones lower potency.

T1 sequence (P54764 20-547): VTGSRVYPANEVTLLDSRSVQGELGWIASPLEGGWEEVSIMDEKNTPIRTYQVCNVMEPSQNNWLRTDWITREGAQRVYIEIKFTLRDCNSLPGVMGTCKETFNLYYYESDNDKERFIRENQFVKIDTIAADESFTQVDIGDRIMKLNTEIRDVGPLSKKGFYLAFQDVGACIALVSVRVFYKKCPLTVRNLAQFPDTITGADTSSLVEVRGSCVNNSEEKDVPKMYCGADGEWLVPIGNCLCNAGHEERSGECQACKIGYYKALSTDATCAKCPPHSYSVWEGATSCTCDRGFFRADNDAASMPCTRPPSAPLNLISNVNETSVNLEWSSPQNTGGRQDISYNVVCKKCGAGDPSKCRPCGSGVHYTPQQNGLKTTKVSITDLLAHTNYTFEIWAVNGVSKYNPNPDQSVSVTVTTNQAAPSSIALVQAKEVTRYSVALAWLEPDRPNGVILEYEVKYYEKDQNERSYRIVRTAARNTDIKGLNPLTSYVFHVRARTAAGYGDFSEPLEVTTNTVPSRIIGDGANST

B1: humanized antibody No. 95 (antibody, human IgG1, kappa)
heavy: QVQLVQSGSELKKPGASVKVSCKASGYTFTDYSMHWVRQAPGQGLEWMGWINTETGEPTYADDFKGRFVFSLDTSVSTAYLQISSLKAEDTAVYYCARIPLYYYGSRYWYFDVWGQGTTVTVSSASTKGPSVFPLAPSSKSTSGGTAALGCLVKDYFPEPVTVSWNSGALTSGVHTFPAVLQSSGLYSLSSVVTVPSSSLGTQTYICNVNHKPSNTKVDKRVEPKSCDKTHTCPPCPAPPAAAPSVFLFPPKPKDTLMISRTPEVTCVVVDVSHEDPEVQFNWYVDGVEVHNAKTKPREEQFNSTFRVVSVLTVVHQDWLNGKEYKCKVSNKGLPAPIEKTISKTKGQPREPQVYTLPPSREEMTKNQVSLTCLVKGFYPSDIAVEWESNGQPENNYKTTPPMLDSDGSFFLYSKLTVDKSRWQQGNVFSCSVMHEALHNHYTQKSLSLSPG
light: EIVMTQSPATLSVSPGERATLSCRASENIYRNLAWYQQKPGQSPRLLIYAATNLADGIPARFSGSGSGTEYTLTISSLQSEDFAVYYCQHFWGTPWTFGQGTKVEIKRTVAAPSVFIFPPSDEQLKSGTASVVCLLNNFYPREAKVQWKVDNALQSGNSQESVTEQDSKDSTYSLSSTLTLSKADYEKHKVYACEVTHQGLSSPVTKSFNRGEC
notes: human Ig kappa; also called L2-4/HK1
B1: in assay [1], the Kd was determined as 1 nM, the koff worked out at 0.00031 s⁻¹ and the on-rate constant (kon) was found to be 300000 M⁻¹ s⁻¹. This molecule came in with an IC50 in assay [2] of 3.1 nM. Moreover, the “A450 as % of hEphA4-SEAP-His” value in assay [3] turned out to be 100%. For the same molecule, the “A450 as % of hEphA4-SEAP-His” value in assay [4] was determined as 4.4%.

B2: humanized antibody No. 96 (antibody, human IgG1, kappa)
heavy: QVQLVQSGSELKKPGASVKVSCKASGYTFTDYSMHWVRQAPGQGLKWMGWINTETGEPTYADDFKGRFVFSLDTSVSTAYLQISSLKAEDTAVYYCARIPLYYYGSRYWYFDVWGQGTTVTVSSASTKGPSVFPLAPSSKSTSGGTAALGCLVKDYFPEPVTVSWNSGALTSGVHTFPAVLQSSGLYSLSSVVTVPSSSLGTQTYICNVNHKPSNTKVDKRVEPKSCDKTHTCPPCPAPPAAAPSVFLFPPKPKDTLMISRTPEVTCVVVDVSHEDPEVQFNWYVDGVEVHNAKTKPREEQFNSTFRVVSVLTVVHQDWLNGKEYKCKVSNKGLPAPIEKTISKTKGQPREPQVYTLPPSREEMTKNQVSLTCLVKGFYPSDIAVEWESNGQPENNYKTTPPMLDSDGSFFLYSKLTVDKSRWQQGNVFSCSVMHEALHNHYTQKSLSLSPG
light: EIVMTQSPATLSVSPGERATLSCRASENIYRNLAWYQQKPGQSPRLLIYAATNLADGIPARFSGSGSGTEYTLTISSLQSEDFAVYYCQHFWGTPWTFGQGTKVEIKRTVAAPSVFIFPPSDEQLKSGTASVVCLLNNFYPREAKVQWKVDNALQSGNSQESVTEQDSKDSTYSLSSTLTLSKADYEKHKVYACEVTHQGLSSPVTKSFNRGEC
notes: human Ig kappa; also called L2-4/HK2
On to B2, for which, in assay [1], the dissociation constant Kd came to 1.1 nM, the koff came out at 0.00031 s⁻¹ and the kon was 270000 M⁻¹ s⁻¹. In addition, the IC50 in assay [2] was found to be 3.7 nM. In addition, the “A450 as % of hEphA4-SEAP-His” value in assay [3] worked out at 100%. Besides, the “A450 as % of hEphA4-SEAP-His” value in assay [4] was 5.4%.

Values taken from patent US20190077860A1 (EISAI R AND D MANAGEMENT, published 2019).
